Experiments:
[1] = Sensitivity of parental chimera versus wild type α7-nAChR, acetylcholine
Source text: (§1) To generate LGICs that conduct anion current following exposure to non-native small molecule agonists of the human α7-nAChR, chimeric ligand gated ion channel (LGIC) receptors comprising the ligand binding domain derived from the human α7 nicotinic acetylcholine receptor (α7-nAChR) and the chloride-conducting ion pore domain derived from the human GlyR1α were genetically engineered.

[2] = Sensitivity of parental chimera versus wild type α7-nAChR, ABT-126
Source text: as §1

[3] = Sensitivity of parental chimera versus wild type α7-nAChR, TC-6987
Source text: as §1

[4] = Sensitivity of parental chimera versus wild type α7-nAChR, Facinicline/RG3487
Source text: as §1

[5] = Sensitivity of parental chimera versus wild type α7-nAChR, AZD-0328
Source text: as §1

[6] = Sensitivity of parental chimera versus wild type α7-nAChR, nicotine
Source text: as §1

[7] = YFP quench plate reader assay, response to acetylcholine; assay type: cell-based; conditions: LX293T YFP reporter cells
Source text: (§2) FIGS. 1A-FIG. 1G show the heat maps of the percent quench of YFP fluorescence in the mutants of the engineered chimeric receptor SEQ ID NO:33 that comprise the indicated double amino acid substitutions following stimulation by various doses of either acetylcholine or the indicated non-native ligand. Ligand doses are written across the top of each chart. Numbers in the boxes indicate the absolute amount of quench observed. Dark blue=80% maximal quench of YFP reporter. Light blue=quench of 30-80%. White=10-30%. Orange=0-10% quench. Negative values represent non-responders that have a negative quench due to a stimulation artifact. SEQ ID NO:29 is a non-responding chimera used as a negative control. Abbreviations for non-native ligand names: abt: ABT-126; ach: acetylcholine; apn: APN-1125; azd: AZD-0328; brd: TC-5619; fac: RG3487; tc6: TC-6987.
(§3) Tables 2-8 below lists percent quench of YFP fluorescence following stimulation of the indicated engineered receptor by various doses of either acetylcholine or the non-native ligand.
(§4) To screen these mutant LGICs for those having novel response profiles to ligands, an anion reporter assay was developed to assess the function of channels in a high throughput format. In this assay, cells expressing a YFP reporter whose fluorescence is quenched in the presence of anion are transfected with DNA encoding the channel of interest. Upon exposure to ligand, channels that are activated will flux anion, resulting in a dose-dependent quench of the YFP that can be detected on a plate reader.
(§5) Lenti-X 293T cells (LX293T, Clontech) were maintained in DMEM containing 10% FBS and 1% penicillin/streptomycin (Invitrogen). […] Two days before assay, cells were split at a density of 20,000 cells/well in a 96-well tissue culture plate coated with poly-d lysine (Thermo Scientific). The next day, the cells were transiently transfected with 0.1 μg of DNA per well using standard Fugene protocol (Promega). On the day of assay, cells were washed 2 times in 1× extracellular solution (1×ECS: 140 mM NaCl, 5 mM KCl, 1 mM MgCl2, 2 mM CaCl2, 10 mM HEPES, 10 mM glucose, pH 7.2, mOsms 300). After the last wash, 100 μL of 1×ECS was added to the wells and the plate was incubated at 37° C. for 30 min. While incubating the plate, the drugs were diluted to a 2× concentration in 1×ECS-NaI (same components as 1×ECS except the 140 mM NaCl was replaced by 140 mM NaI). The plates were then read on a Flexstation3 (Molecular Devices). Each well, 8 wells at a time, of the plate is read for 2 min using a Flexstation3 (Molecular Devices) as follows: 1) a baseline YFP fluorescence is read for 17 sec, 2) 100 μL of ligand is added, and 3) the changes in YFP fluorescence are then measured every 1.3 sec for the remaining time.
(§6) FIG. 1 provides heat maps of the percent quench of YFP fluorescence following stimulation by various doses of either acetylcholine or the non-native ligand as indicated in the Figure. A positive fluorescence signal, as indicated by blue shaded cells, indicate that the engineered receptor is activated by the non-native ligand at that concentration. […] Table 12 lists the EC50 values for the indicated double mutants to acetylcholine (Ach) and TC-5619 as determined from the YFP fluorescence plate reader experiment.

[8] = YFP quench plate reader assay, response to TC-6987; assay type: cell-based; conditions: LX293T YFP reporter cells
Source text: as §2, §3, §4, §5, §6

[9] = High throughput electrophysiology in HEK293T cells, RG-3487; assay type: cell-based
Method: To confirm the EC50s determined by plate reader as well as develop a better understanding of maximum current flow, the engineered receptors were subjected to high throughput electrophysiology system, as described below. For HEK293T studies, cDNAs encoding ion channels were cloned into pcDNA3.1 using standard recombination techniques. HEK293T cells from Clontech (Lenti-X™ 293T Cell Line) were cultured in DMEM supplemented with 10% FBS and 1% Pen/Strep to 40-50% confluence using standard cell culture protocols, transfected with ion channel plasmids at a concentration of 18 μg per 15 cm dish using Fugene 6, and grown for an additional 24 hours. Cells were then assayed on a electrophysiological system (IonFluxHT and/or Mercury, Fluxion Biosciences) in which dose-response relationships may be assessed through a microfluidics-based platform for establishing whole cell configurations. […] Data were then analyzed off-line using custom Python scripts to convert data to .csv format, re-plot traces, and apply QC measurements to reject unstable recordings (i.e. thresholding based on access resistance and/or standard deviation in baseline, as well as artifact rejection). Peak currents were then calculated and population data were fit using a 4-parameter logistic equation as described by the Hill Equation. […]

[10] = YFP quench plate reader assay, response to APN-1125; assay type: cell-based; conditions: LX293T YFP reporter cells
Source text: as §2, §3, §4, §5, §6

[11] = YFP quench plate reader assay, response to RG3487; assay type: cell-based; conditions: LX293T YFP reporter cells
Source text: as §2, §3, §4, §5, §6

[12] = YFP quench plate reader assay, response to AZD-0328; assay type: cell-based; conditions: LX293T YFP reporter cells
Source text: as §2, §3, §4, §5, §6

[13] = High throughput electrophysiology in HEK293T cells, AZD-0328; assay type: cell-based
Method: To confirm the EC50s determined by plate reader as well as develop a better understanding of maximum current flow, the engineered receptors were subjected to high throughput electrophysiology system, as described below. For HEK293T studies, cDNAs encoding ion channels were cloned into pcDNA3.1 using standard recombination techniques. HEK293T cells from Clontech (Lenti-X™ 293T Cell Line) were cultured in DMEM supplemented with 10% FBS and 1% Pen/Strep to 40-50% confluence using standard cell culture protocols, transfected with ion channel plasmids at a concentration of 18 μg per 15 cm dish using Fugene 6, and grown for an additional 24 hours. Cells were then assayed on a electrophysiological system (IonFluxHT and/or Mercury, Fluxion Biosciences) in which dose-response relationships may be assessed through a microfluidics-based platform for establishing whole cell configurations. Ensemble plates were primed with extracellular buffer (140 mM NaCl, 5 mM KCl, 2 mM CaCl2), 1 mM MgCl2, 10 mM HEPES, and 10 mM glucose, pH 7.2 with NaOH, mOsm 310), intracellular buffer (145 mM CsCl, 2 mM CaCl2, 2 mM MgCl2, 10 mM HEPES, and 10 mM EGTA, pH 7.2 with CsOH, mOsm 305), as adapted from Lynagh and Lynch, and test compounds (stocks prepared fresh) diluted in extracellular buffer. Cells were then released from the plate with Accutase, centrifuged, resuspended in extracellular buffer, and loaded into Ensemble plates. Cells were then subjected to a standard protocol for priming, trapping, breaking, and establishing whole cell configuration, with cells held at −60 mV throughout the recording. After recording baseline, progressive doses of test compounds were applied using the IonFlux software to assess dose response relationships. Data were then analyzed off-line using custom Python scripts to convert data to .csv format, re-plot traces, and apply QC measurements to reject unstable recordings (i.e. thresholding based on access resistance and/or standard deviation in baseline, as well as artifact rejection). Peak currents were then calculated and population data were fit using a 4-parameter logistic equation as described by the Hill Equation. Currents were measured on an automated patch clamp system (Fluxion Biosciences) following 1 second addition of drug and the EC50 values calculated are tabulated below in Table 13.

[14] = YFP quench plate reader assay, response to TC-5619; assay type: cell-based; conditions: LX293T YFP reporter cells
Source text: as §2, §3, §4, §5, §6

[15] = YFP quench plate reader assay, response to ABT-126; assay type: cell-based; conditions: LX293T YFP reporter cells
Source text: as §2, §3, §4, §5, §6

B1: SEQ ID NO: 33: parental CHRNA7/GLRA1 chimera: α7-nAChR ligand binding domain with GlyRα1 Cys-loop, fused to GlyRα1 ion pore domain (protein)
chain: MRCSPGGVWLALAASLLHVSLQGEFQRKLYKELVKNYNPLERPVANDSQPLTVYFSLSLLQIMDVDEKNQVLTTNIWLQMSWTDHYLQWNVSEYPGVKTVRFPDGQIWKPDILLYNSADERFDATFHTNVLVNSSGHCQYLPPGIFKSSCPMDLKNFPMDVQTCKLKFGSWSYGGWSLDLQMQEADISGYIPNGEWDLVGIPGKRSERFYECCKEPYPDVTFTVTMRRRMGYYLIQMYIPSLLIVILSWISFWINMDAAPARVGLGITTVLTMTTQSSGSRASLPKVSYVKAIDIWMAVCLLFVFSALLEYAAVNFVSRQHKELLRFRRKRRHHKSPMLNLFQEDEAGEGRFNFSAYGMGPACLQAKDGISVKGANNSNTTNPPPAPSKSPEEMRKLFIQRAKKIDKISRIGFPMAFLIFNMFYWIIYKIVRREDVHNQ
modifications: synthetic sequence of chimeric LGIC
[1]
  sensitivity to acetylcholine compared to wild type α7-nAChR: approximately as sensitive
[2]
  sensitivity to ABT-126 compared to wild type α7-nAChR: approximately as sensitive
[3]
  sensitivity to TC-6987 compared to wild type α7-nAChR: approximately as sensitive
[3]; similar to wild type
  type of agonist activity of TC-6987 on the receptor: partial agonist activity
[4]
  fold more sensitive to Facinicline/RG3487 than wild type: ~10 fold
[5]
  fold more sensitive to AZD-0328 than wild type: approximately 3 fold
[6]
  fold less sensitive to nicotine than wild type: ~2 fold

B2: L131D, S172D in SEQ ID NO: 33: engineered chimeric α7-nAChR/GlyRα1 LGIC receptor: SEQ ID NO: 33 with substitutions L131D and S172D (protein)
chain: MRCSPGGVWLALAASLLHVSLQGEFQRKLYKELVKNYNPLERPVANDSQPLTVYFSLSLLQIMDVDEKNQVLTTNIWLQMSWTDHYLQWNVSEYPGVKTVRFPDGQIWKPDILLYNSADERFDATFHTNVDVNSSGHCQYLPPGIFKSSCPMDLKNFPMDVQTCKLKFGSWDYGGWSLDLQMQEADISGYIPNGEWDLVGIPGKRSERFYECCKEPYPDVTFTVTMRRRMGYYLIQMYIPSLLIVILSWISFWINMDAAPARVGLGITTVLTMTTQSSGSRASLPKVSYVKAIDIWMAVCLLFVFSALLEYAAVNFVSRQHKELLRFRRKRRHHKSPMLNLFQEDEAGEGRFNFSAYGMGPACLQAKDGISVKGANNSNTTNPPPAPSKSPEEMRKLFIQRAKKIDKISRIGFPMAFLIFNMFYWIIYKIVRREDVHNQ
modifications: synthetic sequence of chimeric LGIC
[7]; 10 uM acetylcholine
  percent quench of YFP fluorescence, 10 uM ach: −12.91%
[7]; 100 uM acetylcholine
  percent quench of YFP fluorescence, 100 uM ach: −20.88%
[7]; 1 mM acetylcholine
  percent quench of YFP fluorescence, 1 mM ach: 79.85%
[7]; 3 mM acetylcholine
  percent quench of YFP fluorescence, 3 mM ach: 79.98%
[8]; 1 uM TC-6987
  percent quench of YFP fluorescence, 1 uM tc6: −18.24%
[8]; 10 uM TC-6987
  percent quench of YFP fluorescence, 10 uM tc6: −23.06%
[8]; 500 uM TC-6987
  percent quench of YFP fluorescence, 500 uM tc6: −19.3%
[9]
  fold increased potency to RG-3487 compared to wild type receptor: at least 10 fold
[10]; 100 nM APN-1125
  percent quench of YFP fluorescence, 100 nM apn: 71.72%
[10]; 1 uM APN-1125
  percent quench of YFP fluorescence, 1 uM apn: 77.26%
[10]; 30 uM APN-1125
  percent quench of YFP fluorescence, 30 uM apn: 77.5%
[11]; 30 nM RG3487
  percent quench of YFP fluorescence, 30 nM fac: 24.15%
[11]; 300 nM RG3487
  percent quench of YFP fluorescence, 300 nM fac: 80.17%
[11]; 10 uM RG3487
  percent quench of YFP fluorescence, 10 uM fac: 81.34%
[11]; 30 uM RG3487
  percent quench of YFP fluorescence, 30 uM fac: 79.9%
[12]; 100 nM AZD-0328
  percent quench of YFP fluorescence, 100 nM azd: 51.44%
[12]; 300 nM AZD-0328
  percent quench of YFP fluorescence, 300 nM azd: 77.12%
[12]; 30 uM AZD-0328
  percent quench of YFP fluorescence, 30 uM azd: 79.26%
[13]
  fold increased potency towards AZD-0328 compared to wild type receptor: at least 10 fold
[14]; 1 nM TC-5619
  percent quench of YFP fluorescence, 1 nM brd: −1.24%
[14]; 3 nM TC-5619
  percent quench of YFP fluorescence, 3 nM brd: 0.25%
[14]; 10 nM TC-5619
  percent quench of YFP fluorescence, 10 nM brd: −2.57%
[14]; 30 nM TC-5619
  percent quench of YFP fluorescence, 30 nM brd: 0.78%
[14]; 100 nM TC-5619
  percent quench of YFP fluorescence, 100 nM brd: 4.51%
[14]; 300 nM TC-5619
  percent quench of YFP fluorescence, 300 nM brd: 30.97%
[14]; 1 uM TC-5619
  percent quench of YFP fluorescence, 1 uM brd: 44.41%
[15]; 50 nM ABT-126
  percent quench of YFP fluorescence, 50 nM abt: −3.19%
[15]; 100 nM ABT-126
  percent quench of YFP fluorescence, 100 nM abt: 7.58%
[15]; 300 nM ABT-126
  percent quench of YFP fluorescence, 300 nM abt: −1.65%
[15]; 1 uM ABT-126
  percent quench of YFP fluorescence, 1 uM abt: 31.29%
